The subject of series [1] is HeLa Kyoto. In words: solubility change mitosis vs G1/S (difference of NP-40 vs SDS log2 ratios) (log2 ratio difference); higher = more soluble in mitosis.
In series [2] the test system is HeLa Kyoto. As to the kind of experiment: thermal stability score vs G1/S (z-score of summed log2 fold changes over temperatures); higher = more thermally stable than in G1/S.
Series [3] has as its system HeLa Kyoto. In words: melting temperature (median over replicates), in situ; higher = more thermally stable.
Series [4] deals with HeLa Kyoto. In words: solubility in G1/S (NP-40 vs SDS abundance) (log2 ratio); higher = more soluble. To be noted: cell cycle stage: G1/S.
[5] abbreviates: cell cycle stage: early G1 (4.5 h after nocodazole release).

From the supplement of paper PMC5998384 come the findings set out here.
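Throughout, for melting temperature (median over replicates), in situ: HeLa Kyoto cells synchronized by double thymidine or nocodazole block, proteins quantified by TMT10plex mass spectrometry, three independent biological replicates.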
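Throughout, for solubility change mitosis vs G1/S (difference of NP-40 vs SDS log2 ratios): synchronized HeLa Kyoto cells (double thymidine block for G1/S, nocodazole release for mitosis), protein amounts in NP-40 versus SDS lysates quantified by mass spectrometry, three biological replicates.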
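Throughout, for solubility in G1/S (NP-40 vs SDS abundance): HeLa Kyoto cells arrested at G1/S by double thymidine block, proteins quantified by TMT10plex mass spectrometry in mild NP-40 versus SDS extracts, three biological replicates.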
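Throughout, for thermal stability score vs G1/S (z-score of summed log2 fold changes over temperatures): synchronized HeLa Kyoto cells, proteins quantified by TMT10plex mass spectrometry, three biological replicates, mitosis taken 0.5 h after nocodazole release, G1/S directly after double thymidine block.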

For the sequence “MSWMFKRDPVWKYLQTVQYGVHGNFPRLSYPTFFPRFEFQDVIPPDDFLTSDEEVDSVLFGSLRGHVVGLRYYTGVVNNNEMVALQRDPNNPYDKNAIKVNNVNGNQVGHLKKELAGALAYIMDNKLAQIEGVVPFGANNAFTMPLHMTFWGKEENRKAVSDQLKKHGFKLGPAPKTLGFNLESGWGSGRAGPSYSMPVHAAVQMTTEQLKTEFDKLFEDLKEDDKTHEMEPAEAIETPLLPHQKQALAWMVSRENSKELPPFWEQRNDLYYNTITNFSEKDRPENVHGGILADDMGLGKTLTAIAVILTNFHDGRPLPIERVKKNLLKKEYNVNDDSMKLGGNNTSEKADGLSKDASRCSEQPSISDIKEKSKFRMSELSSSRPKRRKTAVQYIESSDSEEIETSELPQKMKGKLKNVQSETKGRAKAGSSKVIEDVAFACALTSSVPTTKKKMLKKGACAVEGSKKTDVEERPRTTLIICPLSVLSNWIDQFGQHIKSDVHLNFYVYYGPDRIREPALLSKQDIVLTTYNILTHDYGTKGDSPLHSIRWLRVILDEGHAIRNPNAQQTKAVLDLESERRWVLTGTPIQNSLKDLWSLLSFLKLKPFIDREWWHRTIQRPVTMGDEGGLRRLQSLIKNITLRRTKTSKIKGKPVLELPERKVFIQHITLSDEERKIYQSVKNEGRATIGRYFNEGTVLAHYADVLGLLLRLRQICCHTYLLTNAVSSNGPSGNDTPEELRKKLIRKMKLILSSGSDEECAICLDSLTVPVITHCAHVFCKPCICQVIQNEQPHAKCPLCRNDIHEDNLLECPPEELARDSEKKSDMEWTSSSKINALMHALTDLRKKNPNIKSLVVSQFTTFLSLIEIPLKASGFVFTRLDGSMAQKKRVESIQCFQNTEAGSPTIMLLSLKAGGVGLNLSAASRVFLMDPAWNPAAEDQCFDRCHRLGQKQEVIITKFIVKDSVEENMLKIQNKKRELAAGAFGTKKPNADEMKQAKINEIRTLIDL [HLTF]”, in the series on HeLa Kyoto [1], the “solubility change mitosis (log2)” value is -0.0719. Further, the results for the thermal stability score in the series on HeLa Kyoto [2] (setting [5]) and with HeLa Kyoto [2] (cell cycle stage: mitosis) were 2.36 and 4.68, respectively. For the same sequence, the melting temperature in the series with HeLa Kyoto [3] (cell cycle stage: G1/S) was 48.9 °C; in the series on HeLa Kyoto [3] (cell cycle stage: mitosis) it was 50.2 °C. For the same sequence, the “solubility in G1/S (log2)” value with HeLa Kyoto [4] was -0.124.
Turning to “MSWSPSLTTQTCGAWEMKERLGTGGFGNVIRWHNQETGEQIAIKQCRQELSPRNRERWCLEIQIMRRLTHPNVVAARDVPEGMQNLAPNDLPLLAMEYCQGGDLRKYLNQFENCCGLREGAILTLLSDIASALRYLHENRIIHRDLKPENIVLQQGEQRLIHKIIDLGYAKELDQGSLCTSFVGTLQYLAPELLEQQKYTVTVDYWSFGTLAFECITGFRPFLPNWQPVQWHSKVRQKSEVDIVVSEDLNGTVKFSSSLPYPNNLNSVLAERLEKWLQLMLMWHPRQRGTDPTYGPNGCFKALDDILNLKLVHILNMVTGTIHTYPVTEDESLQSLKARIQQDTGIPEEDQELLQEAGLALIPDKPATQCISDGKLNEGHTLDMDLVFLFDNSKITYETQISPRPQPESVSCILQEPKRNLAFFQLRKVWGQVWHSIQTLKEDCNRLQQGQRAAMMNLLRNNSCLSKMKNSMASMSQQLKAKLDFFKTSIQIDLEKYSEQTEFGITSDKLLLAWREMEQAVELCGRENEVKLLVERMMALQTDIVDLQRSPMGRKQGGTLDDLEEQARELYRRLREKPRDQRTEGDSQEMVRLLLQAIQSFEKKVRVIYTQLSKTVVCKQKALELLPKVEEVVSLMNEDEKTVVRLQEKRQKELWNLLKIACSKVRGPVSGSPDSMNASRLSQPGQLMSQPSTASNSLPEPAKKSEELVAEAHNLCTLLENAIQDTVREQDQSFTALDWSWLQTEEEEHSCLEQAS [IKBKB]”, the “solubility change mitosis (log2)” value in the series with HeLa Kyoto [1] was -0.171. Besides, the thermal stability score is 1.13 with HeLa Kyoto [2] (setting [5]) and 2.17 in the series on HeLa Kyoto [2] (cell cycle stage: mitosis). The melting temperature in the series on HeLa Kyoto [3] (cell cycle stage: G1/S) came to 48.3 °C; in the series on HeLa Kyoto [3] (cell cycle stage: mitosis), 49.2 °C. In the series on HeLa Kyoto [4], the “solubility in G1/S (log2)” value was determined as 0.0875.
Consider “MSYTPGVGGDPAQLAQRISSNIQKITQCSVEIQRTLNQLGTPQDSPELRQQLQQKQQYTNQLAKETDKYIKEFGSLPTTPSEQRQRKIQKDRLVAEFTTSLTNFQKVQRQAAEREKEFVARVRASSRVSGSFPEDSSKERNLVSWESQTQPQVQVQDEEITEDDLRLIHERESSIRQLEADIMDINEIFKDLGMMIHEQGDVIDSIEANVENAEVHVQQANQQLSRAADYQRKSRKTLCIIILILVIGVAIISLIIWGLNH [STX7]”, for which, in the series on HeLa Kyoto [1], the “solubility change mitosis (log2)” value came to 0.264. The thermal stability score with HeLa Kyoto [2] (setting [5]) is -1.45; in the series with HeLa Kyoto [2] (cell cycle stage: mitosis), -2.01. The melting temperature with HeLa Kyoto [3] (cell cycle stage: G1/S) is 54.1 °C; in the series on HeLa Kyoto [3] (cell cycle stage: mitosis), 55 °C. In addition, in the series with HeLa Kyoto [4], the “solubility in G1/S (log2)” value came to 0.637.
In the case of “MTANRLAESLLALSQQEELADLPKDYLLSESEDEGDNDGERKHQKLLEAISSLDGKNRRKLAERSEASLKVSEFNVSSEGSGEKLVLADLLEPVKTSSSLATVKKQLSRVKSKKTVELPLNKEEIERIHREVAFNKTAQVLSKWDPVVLKNRQAEQLVFPLEKEEPAIAPIEHVLSGWKARTPLEQEIFNLLHKNKQPVTDPLLTPVEKASLRAMSLEEAKMRRAELQRARALQSYYEAKARREKKIKSKKYHKVVKKGKAKKALKEFEQLRKVNPAAALEELEKIEKARMMERMSLKHQNSGKWAKSKAIMAKYDLEARQAMQEQLSKNKELTQKLQVASESEEEEGGTEDVEELLVPDVVNEVQMNADGPNPWMLRSCTSDTKEAATQEDPEQLPELEAHGVSESEGEERPVAEEEILLREFEERRSLRKRSELSQDAEPAGSQETKDSGSQEVLSELRVLSQKLKENHQSRKQKASSEGTIPQVQREEPAPEEEEPLLLQRPERVQTLEELEELGKEECFQNKELPRPVLEGQQSERTPNNRPDAPKEKKKKEQMIDLQNLLTTQSPSVKSLAVPTIEELEDEEERNHRQMIKEAFAGDDVIRDFLKEKREAVEASKPKDVDLTLPGWGEWGGVGLKPSAKKRRRFLIKAPEGPPRKDKNLPNVIINEKRNIHAAAHQVRVLPYPFTHHWQFERTIQTPIGSTWNTQRAFQKLTTPKVVTKPGHIINPIKAEDVGYRSSSRSDLSVIQRNPKRITTRHKKQLKKCSVD [UTP14A]”, the “solubility change mitosis (log2)” value in the series with HeLa Kyoto [1] came out at 0.895. For the same sequence, the results for the thermal stability score in the series with HeLa Kyoto [2] (setting [5]) and with HeLa Kyoto [2] (cell cycle stage: mitosis) were -4.25 and -2.2, respectively. Further, the melting temperature with HeLa Kyoto [3] (cell cycle stage: G1/S) worked out at 53 °C; in the series on HeLa Kyoto [3] (cell cycle stage: mitosis), 52.8 °C. Moreover, the “solubility in G1/S (log2)” value with HeLa Kyoto [4] is -1.64.
Take “MTAPCPPPPPDPQFVLRGTQSPVHALHFCEGAQAQGRPLLFSGSQSGLVHIWSLQTRRAVTTLDGHGGQCVTWLQTLPQGRQLLSQGRDLKLCLWDLAEGRSAVVDSVCLESVGFCRSSILAGGQPRWTLAVPGRGSDEVQILEMPSKTSVCALKPKADAKLGMPMCLRLWQADCSSRPLLLAGYEDGSVVLWDVSEQKVCSRIACHEEPVMDLDFDSQKARGISGSAGKALAVWSLDWQQALQVRGTHELTNPGIAEVTIRPDRKILATAGWDHRIRVFHWRTMQPLAVLAFHSAAVQCVAFTADGLLAAGSKDQRISLWSLYPRA [GNB1L]”: the “solubility change mitosis (log2)” value with HeLa Kyoto [1] is -0.205. In addition, the results for the thermal stability score in the series on HeLa Kyoto [2] (setting [5]) and with HeLa Kyoto [2] (cell cycle stage: mitosis) were -0.681 and -0.0471, respectively. For the same sequence, the melting temperature with HeLa Kyoto [3] (cell cycle stage: G1/S) stood at 54.6 °C; in the series with HeLa Kyoto [3] (cell cycle stage: mitosis), 54.2 °C. Also, in the series with HeLa Kyoto [4], the “solubility in G1/S (log2)” value was determined as 0.0814.
